Data as given in patent US20250099634A1, “METHOD OF TREATING CANCER” (Novartis AG, priority 2023, published 2025).

Assays:
[1] = NETTER-2 deaths (Safety Set); format: in vivo, human
[2] = NETTER-2 serious adverse events in the randomized treatment period (Safety Set)
From the text: All adverse events (AEs), whether or not spontaneously reported by the patient, will be recorded starting from the signing of the ICF until the end of the Treatment Phase. Safety summaries (tables, figures) include only data from the on-treatment period with the exception of baseline data which will also be summarized where appropriate (e.g. change from baseline summaries). In addition, a separate summary for death including on treatment and post treatment deaths will be provided. In particular, summary tables for adverse events (AEs) will summarize only on-treatment events, with a start date during the on-treatment period (treatment-emergent AEs).
Separate summaries will be provided for study medication related adverse events, death, serious adverse events, other significant adverse events leading to discontinuation and adverse events leading to dose adjustment.

OCT1 = OCT1 (Homo sapiens, UniProt O15245)
BCRP = BCRP (Homo sapiens, UniProt Q9UNQ0); settings: not told
[3] = NETTER-2 worst post-baseline hematology abnormalities based on CTC grades (Safety Set); format: in vivo, human
From the text: The laboratory assessments require that blood samples for hematology and blood chemistry, and a urine sample for urinalysis are taken. Laboratory assessments will be performed at the investigational site.
Blood tests performed 4 weeks after any treatment cannot serve as baseline values for the next treatment.
All laboratory data will be listed by treatment group, subject, and visit/time and if normal ranges are available abnormalities will be flagged. Summary statistics will be provided by treatment and visit/time. Shift tables using the low/normal/high/(low and high) classification will be used to compare baseline to the worst on-treatment value.
Grading of laboratory values will be assigned programmatically as per NCI Common Terminology Criteria for Adverse Events (CTCAE) version 5.0 or current version. The calculation of CTCAE grades will be based on the observed laboratory values only, clinical assessments will not be taken into account.
The following summaries will be generated separately for hematology, and biochemistry tests: • 1. Listing of all laboratory data with values flagged to show the corresponding CTCAE grades if applicable and the classifications relative to the laboratory normal ranges • 2. For laboratory tests where grades are defined by CTCAE, • 3. Worst post-baseline CTCAE grade (regardless of the baseline status). Each subject will be counted only once for the worst grade observed post-baseline. • 4. Shift tables using CTCAE grades to compare baseline to the worst on-treatment value • 5. For laboratory tests where grades are not defined by CTCAE, • 6. Shift tables using the low/normal/high/(low and high) classification to compare baseline to the worst on-treatment value.

OCT2 = OCT2 (Homo sapiens, UniProt O15244)
OCT2, sequence (O15244 whole entry): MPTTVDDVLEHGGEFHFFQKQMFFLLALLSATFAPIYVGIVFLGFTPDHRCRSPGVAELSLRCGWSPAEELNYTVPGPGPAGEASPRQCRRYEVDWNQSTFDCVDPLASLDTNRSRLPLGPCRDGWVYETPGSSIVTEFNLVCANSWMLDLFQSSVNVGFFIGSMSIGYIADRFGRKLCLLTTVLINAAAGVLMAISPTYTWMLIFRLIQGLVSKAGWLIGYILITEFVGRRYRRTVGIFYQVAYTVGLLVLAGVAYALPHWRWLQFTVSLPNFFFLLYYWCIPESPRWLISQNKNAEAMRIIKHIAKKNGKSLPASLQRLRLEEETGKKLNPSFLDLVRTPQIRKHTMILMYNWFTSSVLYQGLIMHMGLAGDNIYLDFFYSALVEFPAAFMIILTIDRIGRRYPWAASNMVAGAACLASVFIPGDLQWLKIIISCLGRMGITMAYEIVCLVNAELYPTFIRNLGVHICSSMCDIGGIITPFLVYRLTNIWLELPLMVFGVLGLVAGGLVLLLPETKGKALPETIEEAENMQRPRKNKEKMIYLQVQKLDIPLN

midgut carcinoid tumors = settings: NETTER-1, cited from earlier work
[4] = test system: somatostatin receptor-positive tumors, including GEP-NETS; settings: 1,214 patients; cited from earlier work
[5] = All grades, randomized treatment period, Safety Set
[6] = Grade >=3, randomized treatment period, Safety Set
[7] = randomized treatment period, Safety Set

BCRP, sequence (Q9UNQ0 whole entry): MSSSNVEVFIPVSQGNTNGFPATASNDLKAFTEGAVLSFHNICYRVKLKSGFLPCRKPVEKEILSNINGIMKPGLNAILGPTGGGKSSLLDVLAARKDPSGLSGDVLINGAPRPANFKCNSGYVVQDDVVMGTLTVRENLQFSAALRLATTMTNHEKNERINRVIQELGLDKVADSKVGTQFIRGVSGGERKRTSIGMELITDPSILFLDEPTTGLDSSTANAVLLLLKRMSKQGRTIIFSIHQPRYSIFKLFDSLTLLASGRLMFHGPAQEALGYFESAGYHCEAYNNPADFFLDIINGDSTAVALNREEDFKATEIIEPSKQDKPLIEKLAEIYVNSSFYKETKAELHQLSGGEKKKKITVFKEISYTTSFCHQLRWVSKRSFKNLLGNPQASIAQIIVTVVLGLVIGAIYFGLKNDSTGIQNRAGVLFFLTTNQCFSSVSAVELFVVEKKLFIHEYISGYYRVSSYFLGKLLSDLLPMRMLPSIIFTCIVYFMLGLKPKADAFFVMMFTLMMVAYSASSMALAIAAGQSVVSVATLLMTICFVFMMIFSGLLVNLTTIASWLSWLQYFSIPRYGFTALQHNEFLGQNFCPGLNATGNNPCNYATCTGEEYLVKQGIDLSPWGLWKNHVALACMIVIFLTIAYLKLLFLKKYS
OCT1, sequence (O15245 whole entry): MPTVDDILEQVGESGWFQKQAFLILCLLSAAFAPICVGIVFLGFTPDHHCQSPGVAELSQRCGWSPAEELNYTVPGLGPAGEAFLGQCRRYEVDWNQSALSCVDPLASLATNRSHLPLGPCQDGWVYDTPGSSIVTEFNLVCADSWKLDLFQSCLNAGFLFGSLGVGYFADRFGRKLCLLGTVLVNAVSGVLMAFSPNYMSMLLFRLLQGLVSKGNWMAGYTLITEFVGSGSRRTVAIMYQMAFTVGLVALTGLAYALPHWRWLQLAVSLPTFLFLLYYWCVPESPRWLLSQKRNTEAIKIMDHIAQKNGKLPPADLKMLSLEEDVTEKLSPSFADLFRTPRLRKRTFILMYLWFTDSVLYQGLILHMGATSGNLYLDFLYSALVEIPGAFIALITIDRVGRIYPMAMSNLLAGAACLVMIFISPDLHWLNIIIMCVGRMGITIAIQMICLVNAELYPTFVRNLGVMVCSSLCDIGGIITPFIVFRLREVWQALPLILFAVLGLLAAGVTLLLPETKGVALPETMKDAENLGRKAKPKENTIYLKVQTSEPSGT

SMILES: C[C@@H](O)[C@H](NC(=O)[C@@H]1CSSC[C@H](NC(=O)[C@@H](Cc2ccccc2)NC(=O)CN2CCN(CC(=O)[O-])CCN(CC(=O)[O-])CCN(CC(=O)[O-])CC2)C(=O)N[C@@H](Cc2ccc(O)cc2)C(=O)N[C@H](Cc2c[nH]c3ccccc23)C(=O)N[C@@H](CCCCN)C(=O)N[C@@H]([C@@H](C)O)C(=O)N1)C(=O)O.[177Lu+3] [Lutathera, ^177Lu-DOTA^0-Tyr^3-Octreotate]
- Number of Subjects who Died (Overall) ([1]; Safety Set): 32 (21.8) n (%)
- Number of Subjects who Died (Overall), primary reason Adverse Event ([1]; Safety Set): 2 (1.4) n (%)
- Number of Subjects who Died (Overall), primary reason Disease under Study ([1]; Safety Set): 30 (20.4) n (%)
- Number of Subjects who Died on-treatment in randomized treatment period (within 30 days of last dose), primary reason Disease under Study ([1]; Safety Set): 2 (1.4) n (%)
- Number of Subjects who Died on-treatment in re-treatment period (within 30 days of last dose) ([1]; Safety Set): 0 n (%)
- Number of subjects who died in the post-treatment follow up period ([1]; Safety Set): 30 (20.4) n (%)
- Number of subjects who died in the post-treatment follow up period, primary reason Adverse Event ([1]; Safety Set): 2 (1.4) n (%)
- Number of subjects who died in the post-treatment follow up period, primary reason Disease under Study ([1]; Safety Set): 28 (19.0) n (%)
- cause of death: adverse event ([1]; during the study): 1.4%
- cause of death: disease under study ([1]; during the study): 20.4%
- subjects died during the study ([1]; during the study): 21.8%
- subjects died within 30 days after the last dose ([1]; randomized treatment period): 1.4%
- Fatal SAEs [2, 5]: 3 (2.0) n (%)
- Fatal SAEs Related to Amino Acids [2, 5]: 0 n (%)
- Fatal SAEs Related to Any Treatment [2, 5]: 0 n (%)
- Fatal SAEs Related to Lutathera [2, 5]: 0 n (%)
- Fatal SAEs Related to Octreotide [2, 5]: 0 n (%)
- SAEs [2, 5]: 30 (20.4) n (%)
- SAEs Related to Amino Acids [2, 5]: 0 n (%)
- SAEs Related to Any Treatment [2, 5]: 8 (5.4) n (%)
- SAEs Related to Lutathera [2, 5]: 8 (5.4) n (%)
- SAEs Related to Octreotide [2, 5]: 0 n (%)
- Serious adverse event: Abdominal pain [2, 5]: 2 (1.4) n (%)
- Serious adverse event: Abdominal sepsis [2, 5]: 0 n (%)
- Serious adverse event: Acute coronary syndrome [2, 5]: 0 n (%)
- Serious adverse event: Acute kidney injury [2, 5]: 0 n (%)
- Serious adverse event: Anaemia [2, 5]: 2 (1.4) n (%)
- Serious adverse event: Ascites [2, 5]: 1 (0.7) n (%)
- Serious adverse event: Blood bilirubin increased [2, 5]: 2 (1.4) n (%)
- Serious adverse event: Carcinoid heart disease [2, 5]: 0 n (%)
- Serious adverse event: Carcinoid syndrome [2, 5]: 0 n (%)
- Serious adverse event: Diarrhoea [2, 5]: 1 (0.7) n (%)
- Serious adverse event: Femur fracture [2, 5]: 0 n (%)
- Serious adverse event: Gastroenteritis [2, 5]: 0 n (%)
- Serious adverse event: Gastrointestinal stoma complication [2, 5]: 2 (1.4) n (%)
- Serious adverse event: Generalised oedema [2, 5]: 0 n (%)
- Serious adverse event: Hip fracture [2, 5]: 0 n (%)
- Serious adverse event: Hyperglycaemia [2, 5]: 0 n (%)
- Serious adverse event: Hypertension [2, 5]: 0 n (%)
- Serious adverse event: Hypoalbuminaemia [2, 5]: 0 n (%)
- Serious adverse event: Intestinal obstruction [2, 5]: 1 (0.7) n (%)
- Serious adverse event: Jaundice [2, 5]: 0 n (%)
- Serious adverse event: Lower gastrointestinal haemorrhage [2, 5]: 0 n (%)
- Serious adverse event: Metabolic encephalopathy [2, 5]: 0 n (%)
- Serious adverse event: Oedema peripheral [2, 5]: 1 (0.7) n (%)
- Serious adverse event: Pleurisy [2, 5]: 0 n (%)
- Serious adverse event: Pyrexia [2, 5]: 2 (1.4) n (%)
- Serious adverse event: Small intestinal obstruction [2, 5]: 5 (3.4) n (%)
- Serious adverse event: Tumour lysis syndrome [2, 5]: 0 n (%)
- Serious adverse events: Number of subjects with at least one event [2, 5]: 30 (20.4) n (%)
- Fatal SAEs [2, 6]: 3 (2.0) n (%)
- Fatal SAEs Related to Amino Acids [2, 6]: 0 n (%)
- Fatal SAEs Related to Any Treatment [2, 6]: 0 n (%)
- Fatal SAEs Related to Lutathera [2, 6]: 0 n (%)
- Fatal SAEs Related to Octreotide [2, 6]: 0 n (%)
- SAEs [2, 6]: 24 (16.3) n (%)
- SAEs Related to Amino Acids [2, 6]: 0 n (%)
- SAEs Related to Any Treatment [2, 6]: 6 (4.1) n (%)
- SAEs Related to Lutathera [2, 6]: 6 (4.1) n (%)
- SAEs Related to Octreotide [2, 6]: 0 n (%)
- Serious adverse event: Abdominal pain [2, 6]: 2 (1.4) n (%)
- Serious adverse event: Abdominal sepsis [2, 6]: 0 n (%)
- Serious adverse event: Acute coronary syndrome [2, 6]: 0 n (%)
- Serious adverse event: Acute kidney injury [2, 6]: 0 n (%)
- Serious adverse event: Anaemia [2, 6]: 1 (0.7) n (%)
- Serious adverse event: Ascites [2, 6]: 0 n (%)
- Serious adverse event: Blood bilirubin increased [2, 6]: 1 (0.7) n (%)
- Serious adverse event: Carcinoid heart disease [2, 6]: 0 n (%)
- Serious adverse event: Carcinoid syndrome [2, 6]: 0 n (%)
- Serious adverse event: Diarrhoea [2, 6]: 0 n (%)
- Serious adverse event: Femur fracture [2, 6]: 0 n (%)
- Serious adverse event: Gastroenteritis [2, 6]: 0 n (%)
- Serious adverse event: Generalised oedema [2, 6]: 0 n (%)
- Serious adverse event: Hip fracture [2, 6]: 0 n (%)
- Serious adverse event: Hyperglycaemia [2, 6]: 0 n (%)
- Serious adverse event: Hypertension [2, 6]: 0 n (%)
- Serious adverse event: Hypoalbuminaemia [2, 6]: 0 n (%)
- Serious adverse event: Intestinal obstruction [2, 6]: 0 n (%)
- Serious adverse event: Jaundice [2, 6]: 0 n (%)
- Serious adverse event: Lower gastrointestinal haemorrhage [2, 6]: 0 n (%)
- Serious adverse event: Metabolic encephalopathy [2, 6]: 0 n (%)
- Serious adverse event: Oedema peripheral [2, 6]: 0 n (%)
- Serious adverse event: Pleurisy [2, 6]: 0 n (%)
- Serious adverse event: Pyrexia [2, 6]: 1 (0.7) n (%)
- Serious adverse event: Tumour lysis syndrome [2, 6]: 0 n (%)
- Serious adverse events: Number of subjects with at least one event [2, 6]: 24 (16.3) n (%)
- Incidence of SAEs: Small intestinal obstruction ([2]; most frequent SAE, summary table): 5 (3.4) (%)
- Serious AEs ([2]; randomized treatment period): 20.4%
- Serious AEs, Treatment-related ([2]; randomized treatment period): 5.4%
- SAE with fatal outcome: Blood bilirubin increased [2, 7]: 1 (0.7) n (%)
- SAE with fatal outcome: Diarrhoea [2, 7]: 0 n (%)
- SAE with fatal outcome: Dyspnoea [2, 7]: 1 (0.7) n (%)
- SAE with fatal outcome: Intestinal perforation [2, 7]: 1 (0.7) n (%)
- SAE with fatal outcome: Tumor Lysis syndrome [2, 7]: 0 n (%)
- SAEs with fatal outcome [2, 7]: 3 (2.0) n (%)
- SAEs with fatal outcome reported in subjects with primary reason for death = Disease under Study [2, 7]: 3 (2.0) n (%)
- interaction with OCT1 (OCT1): absence of specific interaction
- inhibition or induction of human CYP450 enzymes (human CYP450 enzymes): absence of inhibition or significant induction
- interaction with BCRP (BCRP): absence of specific interaction
- Worst post-baseline abnormality: Neutrophils (10E9/L)-Decrease ([3]; All grades (CTCAE v5.0), randomized treatment period, Safety Set): 55 (37.4) n (%)
- Grade 3/4 hematologic lab abnormality: lymphocytes decrease ([3]; in vivo): 38.1%
- Worst post-baseline abnormality: Leukocytes (10E9/L)-Increase ([3]; in vivo): 0 n (%)
- Worst post-baseline abnormality: Neutrophils (10E9/L)-Decrease ([3]; in vivo): 5 (3.4) n (%)
- interaction with OCT2 (OCT2): absence of specific interaction
- risk reduction in likelihood of progression or death event (midgut carcinoid tumors; Lutathera versus 60 mg octreotide long-acting): 79%
- confirmed events (disease progressions RECIST 1.1 centrally assessed or deaths) (midgut carcinoid tumors): 21
- median PFS (midgut carcinoid tumors): not yet been reached
- Complete or partial tumor remission [4]: 39%
